In experiment [1] the target is T1, recombinant His-tagged human FcγRIIIa (176-Val [V]) (human, UniProt P08637 17-208).
T1 construct: Bought; captured on anti-His chip; also called FcγRIIIa-V; not shown: His tag
Put plainly: SPR (Biacore), His-tagged FcγRIIIa-V captured on anti-His chip, antibody in solution, resonance units against antibody concentration. For orientation: SPR reads the build-up and loss of mass on a sensor chip optically.

In experiment [2] the target is T2, human CD27, full length, on cells (T cells, transfected HEK293F cells, Daudi cells, NFκB-luc2/CD27 Jurkat … (human, UniProt P26842 20-240)).
T2 construct: Residues 1-19 are stated to be the signal peptide; also called TNFRSF7
T2 sequence: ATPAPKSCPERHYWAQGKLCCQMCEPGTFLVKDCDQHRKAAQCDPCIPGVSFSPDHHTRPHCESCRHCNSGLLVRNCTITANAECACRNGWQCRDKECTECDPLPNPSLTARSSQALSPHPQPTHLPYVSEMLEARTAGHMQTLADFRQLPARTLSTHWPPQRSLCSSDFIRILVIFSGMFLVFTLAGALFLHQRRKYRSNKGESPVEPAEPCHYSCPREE
The experiment in a line: flow cytometry on CD8+ T cells in human PBMC, FITC goat anti-human IgG F(ab')2, median FITC. How it is done:
Binding of IgG1-CD27-A-P329R-E345R to CD27 on human healthy donor T cells was characterized in more detail using flow cytometry. Anti-HIV gp120 antibody variant IgG1-b12-P329R-E345R was used as non-binding control antibody (ctrl). Human PBMCs were isolated from buffy coats obtained from human healthy donors. PBMC (1×10⁵ cells/well) in FACS buffer were added to polystyrene 96-well round-bottom plates (Greiner bio-one, Cat #650101) and pelleted by centrifugation at 300×g for 3 min at 4° C. The cells were resuspended in 50 μL/well serial antibody dilutions in FACS buffer (range 0.0015 to 10 μg/mL in 3-fold dilution steps) and incubated for 30 min at 4° C. Cells were pelleted, washed twice with FACS buffer and incubated in 50 μL/well with FITC-conjugated secondary antibody (FITC AffiniPure F(ab′)₂ fragment goat anti-human IgG, F(ab′)₂ fragment specific, Jackson ImmunoResearch, Cat #109-096-097, diluted 1:100) for 30 min at 4° C. in the dark. […] The samples were measured by flow cytometry on an LSRFortessa (BD) flow cytometer and analyzed using FlowJo software. Binding curves were analyzed using non-linear regression (sigmoidal dose-response with variable slope) using GraphPad Prism 8 software.

For experiment [3], the target named is T3, human C1q (from normal human serum) (human, UniProt P02745 23-245; P02746 28-253; P02747 29-245).
T3 construct: 20% normal human serum was the source of C1q
T3 sequence (P02745 23-245 limits assumed, chain 1 of 3): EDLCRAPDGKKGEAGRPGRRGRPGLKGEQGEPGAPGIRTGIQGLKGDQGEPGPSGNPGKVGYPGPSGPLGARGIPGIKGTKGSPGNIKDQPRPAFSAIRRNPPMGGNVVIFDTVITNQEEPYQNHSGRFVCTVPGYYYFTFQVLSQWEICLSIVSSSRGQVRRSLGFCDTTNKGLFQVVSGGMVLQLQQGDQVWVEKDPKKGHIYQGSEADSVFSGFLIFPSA
T3 sequence (P02746 28-253 limits assumed, chain 2 of 3): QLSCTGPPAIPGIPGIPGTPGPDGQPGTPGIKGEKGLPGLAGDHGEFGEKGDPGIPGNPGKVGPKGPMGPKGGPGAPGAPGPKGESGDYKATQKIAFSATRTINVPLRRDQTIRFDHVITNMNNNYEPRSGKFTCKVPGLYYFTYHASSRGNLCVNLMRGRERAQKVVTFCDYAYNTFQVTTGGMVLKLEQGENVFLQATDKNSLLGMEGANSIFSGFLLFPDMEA
T3 sequence (P02747 29-245 limits assumed, chain 3 of 3): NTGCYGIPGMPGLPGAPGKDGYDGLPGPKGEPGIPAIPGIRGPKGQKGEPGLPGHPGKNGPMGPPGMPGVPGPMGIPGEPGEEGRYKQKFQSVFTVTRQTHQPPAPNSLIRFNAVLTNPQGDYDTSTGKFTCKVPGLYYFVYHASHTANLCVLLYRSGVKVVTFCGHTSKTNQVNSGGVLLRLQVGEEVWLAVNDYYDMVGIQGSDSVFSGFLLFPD
The experiment in a line: flow cytometry, C1q (20% normal human serum) on human T cells pre-incubated with the antibody, FITC rabbit anti-human C1q, median MFI FITC; antibody concentration varied. Here is the method:
The P329R mutation was previously described to reduce interaction of IgG1 antibodies with C1q and FcgR (Overdijk et al, Molecular Cancer Therapeutics 2020). The effect of the P329R mutation on C1q binding of IgG1-CD27-A comprising the E345R mutation was tested in cellular C1q binding assays in vitro using human healthy donor T cells. Anti-HIV gp120 antibody IgG1-b12-F405L was used as non-binding isotype control antibody (ctrl). […] T cells (2×10⁶ cells/well) were pre-incubated in polystyrene 96-well round-bottom plates with antibody dilution series (8× five-fold dilution starting at 15 μg/mL final assay concentration) for 15 min at 37° C. to allow the antibodies to bind to the T cells. Then, cells were cooled on ice, supplemented with NHS as a source of human C1q (20% NHS final assay concentration) and incubated on ice for 45 min. Cells were subsequently incubated on ice with FITC-labeled Rabbit anti-human C1q antibody (DAKO, Cat #F0254; 20 μg/mL) for 30 min and resuspended in FACS buffer with TO-PRO-3 (ThermoFisher, Cat #T3605; 1:5,000 dilution). C1q binding was determined by flow cytometry measuring the FITC signal on live cells.
(In flow cytometry, cells or beads pass a laser one at a time.)

For experiment [4], the target named is T4, recombinant His-tagged human FcγRIa (human, UniProt P12314 16-288, limits assumed).
T4 construct: Bought; captured on anti-His chip; not shown: His tag
T4 sequence (P12314 16-288 limits assumed): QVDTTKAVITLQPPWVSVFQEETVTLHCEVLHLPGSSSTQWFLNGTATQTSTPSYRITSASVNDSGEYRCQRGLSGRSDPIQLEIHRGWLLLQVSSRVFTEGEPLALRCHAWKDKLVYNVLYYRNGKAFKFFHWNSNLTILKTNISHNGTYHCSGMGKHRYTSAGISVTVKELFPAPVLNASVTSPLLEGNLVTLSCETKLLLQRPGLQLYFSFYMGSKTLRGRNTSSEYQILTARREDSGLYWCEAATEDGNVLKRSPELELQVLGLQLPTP
The experiment in a line: SPR (Biacore), His-tagged FcγRIa captured on anti-His chip, antibody in solution, resonance units against antibody concentration. Here is the method: Biacore surface chips were covalently linked with anti-His antibody and coated with recombinant His-tagged Fc receptors (A) FcγRIa, (B) FcγRIIa-H, (C) FcγRIIa-R, (D) FcγRIIb, (E) FcγRIIIa-F, or (F) FcγRIIIa-V. The anti-HIV-gp120 antibody IgG1-b12 (ctrl) was included as a reference. Shown are absolute resonance units as determined by Biacore SPR after background subtraction (no Fc receptor flow-cell).
Binding of IgG1-CD27-A-P329R-E345R to human FcγR variants was analyzed using a Biacore surface plasmon resonance (SPR) system and compared to an anti-HIV gp120 antibody IgG1-b12 (ctrl). Biacore Series S Sensor Chips CM5 (Cytiva, Cat #29104988) were covalently coated with anti-His antibody using amine-coupling and His capture kits (Cytiva, Cat #BR100050 and Cat #29234602) according to the manufacturer's instructions. […] After three cycles of buffer, antibody samples were injected for 36 cycles to generate binding curves using antibody ranges of 0-3,000 nM for FcγRI and 0-10,000 nM for the other FcγRs. Each sample that was analyzed on an FcR-coated surface (Active Surface) was also analyzed on a parallel flow-cell without FcR (Reference Surface), which was used for background correction. Dissociation from the anti-His-coated surface was performed by regeneration of the surface using 10 mM Glycine-HCl pH 1.5 (Cytiva, Cat #BR100354). […]

T1 sequence (P08637 17-208 F176V limits assumed): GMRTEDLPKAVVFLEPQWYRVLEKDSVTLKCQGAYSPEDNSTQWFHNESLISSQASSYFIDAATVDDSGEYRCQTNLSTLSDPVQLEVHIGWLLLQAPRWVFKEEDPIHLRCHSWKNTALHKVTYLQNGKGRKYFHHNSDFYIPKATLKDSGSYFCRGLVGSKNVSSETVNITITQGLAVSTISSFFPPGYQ

B1: IgG1-CD27-A-P329R-E345R (antibody)
heavy: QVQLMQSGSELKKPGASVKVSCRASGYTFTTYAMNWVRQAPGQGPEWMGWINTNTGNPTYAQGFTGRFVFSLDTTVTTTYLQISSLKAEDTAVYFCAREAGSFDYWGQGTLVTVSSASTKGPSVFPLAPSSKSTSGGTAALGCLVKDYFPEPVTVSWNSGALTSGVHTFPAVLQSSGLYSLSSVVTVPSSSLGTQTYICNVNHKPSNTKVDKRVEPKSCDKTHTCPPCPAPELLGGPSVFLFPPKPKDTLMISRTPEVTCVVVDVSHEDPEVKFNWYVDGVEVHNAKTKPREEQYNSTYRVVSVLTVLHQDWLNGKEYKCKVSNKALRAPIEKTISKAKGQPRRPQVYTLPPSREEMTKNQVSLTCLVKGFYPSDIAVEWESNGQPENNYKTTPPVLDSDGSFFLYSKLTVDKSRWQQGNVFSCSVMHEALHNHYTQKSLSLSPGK
light: QSALTQPASVSGSPGQSITISCTGTSSDVYYYNYVSWYQQHPGRAPKLVIYDVSNRPSGVSNRFSGSKSGNTASLTISGLRAEDEADYYCSSYTVNRVWVFGGGTKLTVLGQPKAAPSVTLFPPSSEELQANKATLVCLISDFYPGAVTVAWKADSSPVKAGVETTTPSKQSNNKYAASSYLSLTPEQWKSHRSYSCQVTHEGSTVEKTVAPTECS
notes: also called IgG1-CD27-A-E345R-P329R
By EC50 (read off the curve) is commonly meant the concentration at which the effect is half-maximal. High values mean weaker potency, low ones greater potency. B1: the binding result in experiment [1] was “no binding (tested: 10,000 nM)”; in experiment [3], “no binding (tested: 15 µg/mL)”; in experiment [4], “binds”. Further, the “EC50 (read off the curve)” value in experiment [2] was approximately 0.03 µg/mL.

(Values after patent US20250289899A1 (Genmab, published 2025).)
